# Source: article doi:10.1101/749432
# Target: endothelial protein C receptor (EPCR), residues 16 to 210, biotinylated on the BAP tag (human) (UniProt Q9UNN8)
# Experiment: SPR
# Sequence of endothelial protein C receptor (EPCR), residues 16 to 210, biotinylated on the BAP tag (human) (Q9UNN8 16-210): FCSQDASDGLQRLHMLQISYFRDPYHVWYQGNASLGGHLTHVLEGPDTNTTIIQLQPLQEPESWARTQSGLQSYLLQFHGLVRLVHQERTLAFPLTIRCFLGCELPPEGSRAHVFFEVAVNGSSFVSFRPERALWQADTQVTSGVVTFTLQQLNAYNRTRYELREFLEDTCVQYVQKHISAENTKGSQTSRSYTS
substance,measurement,value
HB3var03 CIDRα1.4 domain D576A K642A double mutant (domain or fragment),Kd,220 nM
